Results on 2 substances are retold here after US6777176.

The target of data set [1] is enzyme I (phosphoenolpyruvate-protein-phosphatase, EC 2.7.3.9) of the bacterial phosphotransferase system (E. coli) (UniProt P08839). Put plainly: cell-based or functional assay.
Data set [2] relates to peptides from the phage display library which became phosphorylated by Enzyme I.

In the case of HPr protein (from UniProt P0AA04 1-85), in data set [1], the uncoupling P1/peptide/h was 2.7 P1/peptide/h.
With “enzyme I (phosphoenolpyruvate-protein-phosphatase, EC 2.7.3.9) of the bacterial phosphotransferase system”, in data set [2], the “phosphorylation of phage displayed peptides by enzyme I with [32P]phosphoenolpyruvate, fold over the average” value is “phosphorylated 25 to 30 fold over the average” and the “rate of phosphorylation by enzyme I (pyruvate formation coupled to lactate dehydrogenase)” value is listed as “The inhibitory peptides are phosphorylated by enzyme I at a much slower rate than Hpr”.
